Laboratory results from patent US11202837B2, “Biological materials and uses thereof” (Antikor Biopharma Limited, priority 2014, dated 2021).
Read-outs that look alike come from different tables or passages of the source. Where a SMILES comes first, the peptide text is derived from it. [ ]: non-standard residue; d: D form. Dolaproine = CO[C@@H]([C@@H]1CCCN1)[C@@H](C)C(=O)O; Dil = CC[C@H](C)[C@H](NC)[C@@H](CC(=O)O)OC; NMeV = CN[C@H](C(=O)O)C(C)C

B1: scFv (TCT1067)-Auristatin F-C5, DAR 2.7 (conjugate)
scFv: SGSGGSGQVQLVQSGAEVKKPGESLKISCKGSGYSFTSYWIAWVRQMPGKGLEYMGLIYPGDSDTKYSPSFQGQVTISVDKSVSTAYLQWSSLKPSDSAVYFCARHDVGYCTDRTCAAWPEWLGVWGQGTLVTVSSGGGGSGGGGSGGGGSQSVLTQPPSVSAAPGQKVTISCSGSSSNIGNNYVSWYQQLPGTAPKLLIYGHTNRPAGVPDRFSGSKSGTSASLAISGFRSEDEADYYCASWDYTLSGWVFGGGTKLTVLMASMTGGQQMG
B2: scFv (TCT1067)-Auristatin F-C5, DAR 11.8 (conjugate)
scFv: B1 scFv
B3: scFv (TCT1067)-MMAE-PAB-Cit-Val-dPEG9, DAR 9 (conjugate)
scFv: B1 scFv
modifications: non-natural residues
B4: scFv (TCT1067)-Auristatin F-C5, DAR 6.2 (conjugate)
scFv: B1 scFv
B5: scFv (TCT)-Auristatin F-C5: scFv (TCT) conjugated with Auristatin-F-C5-NHS (compound 88), 30 equivalents, average DAR 8.5 (conjugate)
scFv: SGSGGSGQVQLVQSGAEVKKPGESLKISCKGSGYSFTSYWIAWVRQMPGKGLEYMGLIYPGDSDTKYSPSFQGQVTISVDKSVSTAYLQWSSLKPSDSAVYFCARHDVGYCSSSNCAAWPEYFQHWGQGTLVTVSSGGGGSGGGGSGGGGSQSVLTQPPSVSAAPGQKVTISCSGSSSNIGNNYVSWYQQLPGTAPKLLIYGHTNRPAGVPDRFSGSKSGTSASLAISGFRSEDEADYYCAAWDDSLSGWVFGGGTKLTVLMASMTGGQQMG

How the values were obtained:
[1] = system: BT474 human breast carcinoma xenografts; test: Tumour growth inhibition or eradication in BT474 xenograft model; format: in vivo; conditions: free payload treated group
Method: Mice. […] The animals were fed ad libitum water (reverse osmosis, 1 ppm Cl), and NIH 31 Modified and Irradiated Lab Diet® consisting of 18.0% crude protein, 5.0% crude fat, and 5.0% crude fiber. The mice were housed on irradiated Enrich-o'cobs™ Laboratory Animal Bedding in static microisolators on a 12-hour light cycle at 20-22° C. (68-72° F.) and 40-60% humidity. Charles River Discovery Services North Carolina (CR Discovery Services, who carried out this contracted R&D) specifically complies with the recommendations of the Guide for Care and Use of Laboratory Animals with respect to restraint, husbandry, surgical procedures, feed and fluid regulation, and veterinary care.
Tumor weight may be estimated with the assumption that 1 mg is equivalent to 1 mm^3 of tumor volume.

BT474 cells = test: Cell killing assay (MTS), BT474 cells; format: cell-based, human; conditions: BT474 Cells (HER2++), 96 hours, Table 49; for IC50: read-out: IC50
Procedure, shortened: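 BT474 and NCI-N87 cells plated at 7500 cells/well in RPMI and exposed to ADCs for 96 h at 37 °C, 5% CO2. Viability read by MTS absorbance at 490 nm after 2 h, scaled between untreated (100% survival) and Triton X-100 (100% death) controls. Dose-response curves fitted from at least 3 repeats.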

SKBr3 cells = test: Cell killing assay (MTS), SKBr3 cells; format: cell-based, human; conditions: SKBr3 Cells (HER2+++), 96 hours; for IC50: read-out: IC50
NCI-N87 cells = test: Cell killing assay (MTS), NCI-N87 cells; format: cell-based, human; conditions: 96 hours
Method: (§1) The cells were recovered by centrifugation (2 min, 2000 rpm), the supernatant was discarded, and the cells were resuspended in complete McCoy's 5A (5 ml). The cells were then counted using a haemocytometer and diluted accordingly. They were plated at 5000 cells/well (200 μl) using attachment factor and incubated overnight at 37° C., 5% CO2 in a humidified atmosphere. U87 is a non-HER2 expressing glioblastoma cell line [Zitron I M et al (2013) BMC Cancer 13:83] and was grown in a similar way, plated at 1000 cells/well (using DMEM media). BT474 is a HER2 expressing breast cancer cell line [Brockhoff G et al (2007) Cell Prolif 40:488-507] and was grown in a similar way, plated at 7500 cells/well (using RPMI media). NCI-N87 is a HER2 expressing gastric cancer cell line [Yamashita-Kashima Y et al (2013) Oncol. Rep 30:1087-93] and was grown in a similar way, plated at 7500 cells/well (using RPMI media).
(§2) The cells were exposed to the various ADCs diluted in complete media for 96 hours at 37° C., 5% CO2 in a humidified atmosphere. Cell viability was measured using the Promega Aqueous Cell-titre-96™ aqueous one solution cell proliferation kit (MTS reagent) according to manufacturer's instructions. Briefly, the media was removed and 100 μl of complete phenol red free media, pre-combined with MTS reagent, was added to the cells (20 μl of reagent per 100 μl of media). The plates were read on an ELISA plate reader at 490 nm after a 2 hr incubation in the dark (5% CO2, 37° C.).
The data (absorption units) were converted to % cell survival by using the untreated controls as the 100% cell survival and the Triton X-100 controls as the 100% cell death. The average absorption value for the latter was subtracted from all the rest of the data in order to get a suitable baseline. The averages were converted to survival and standard error values were obtained for each n value (as a % cell survival). […] Experiments were repeated at least 3 times for each compound tested and a set or an average of the data was plotted and fitted to obtain a dose-response curve.

U87 cells = test: Cell killing assay (MTS), U87 cells; format: cell-based; conditions: U87 Cells (HER2−), 96 hours, Table 51
Method: SKBr3, human breast cancer cell line, high HER2 expression levels, up to 1,000,000 receptors per cell [Lazar G A, et al Proc Natl Acad Sci USA. […] When confluency was 70-80%, cells were washed with PBS (2×10 ml) and incubated with trypsin for 5-7 min. Complete media was added and the cells were resuspended by pipetting. The cells were recovered by centrifugation (2 min, 2000 rpm), the supernatant was discarded, and the cells were resuspended in complete DMEM (5 ml). The cells were then counted using a haemocytometer and diluted accordingly. They were plated at 4500 cells/well (200 μl) using attachment factor and incubated overnight at 37° C., 5% CO2 in a humidified atmosphere. U87 is a non-HER2 expressing glioblastoma cell line and was grown in a similar way, plated at 1000 cells/well.
The cells were exposed to the various ADCs diluted in complete media for 96 hours at 37° C., 5% CO2 in a humidified atmosphere. Cell viability was measured using the Promega Aqueous Cell-titre-96™ aqueous one solution cell proliferation kit according to manufacturer's instructions. Briefly, the media was removed and 100 μl of complete phenol red free media, pre-combined with MTS reagent, was added to the cells (20 μl of reagent per 100 μl of media). The plates were read on an ELISA plate reader at 490 nm after a 2 hr incubation in the dark (5% CO2, 37° C.).
The data (absorption units) were converted to % cell survival by using the untreated controls as the 100% cell survival and the Triton X-100 controls as the 100% cell death. The average absorption value for the latter was subtracted from all the rest of the data in order to get a suitable baseline. The averages were converted to survival and standard error values were obtained for each n value (as a % cell survival). […] Experiments were repeated at least 3 times for each compound tested and a set or an average of the data was plotted and fitted to obtain a dose response curve.
as §1, §2
The data (absorption units) were converted to % cell survival by using the untreated controls as the 100% cell survival and the Triton X-100 controls as the 100% cell death. The average absorption value for the latter was subtracted from all the rest of the data in order to get a suitable baseline. The averages were converted to survival and standard error values were obtained for each n value (as a % cell survival).

HER2 = HER2 (Homo sapiens, UniProt P04626); test: Biacore SPR binding to immobilised HER2; conditions: compared to unmodified scFv
Method: The binding affinity against immobilised HER2 target antigen was determined by Biacore SPR compared to the unmodified scFv on a Biacore T200. A standard amine-coupling method was used to prepare all Biacore surfaces (CM5 or CM3), as follows. Flow cells were activated individually by injecting a freshly mixed solution of 0.2M EDC in 0.05 M NHS at 30 μl/min. […] Excess NHS ester was deactivated using a 1 M ethanolamine solution. To measure the kinetics of the antibody and conjugate on the HER2 chip, a […] serial dilution (typically at 5, 2.5, 1.25, 0.6 μg/ml or lower for free antibody and 20, 10, 5, 2.5 μg/ml for the conjugates), was injected for 160 s at 30 μl/min, allowing a 900-s dissociation phase. The dissociation time was extended to 3600 s for the highest concentration. Surfaces were regenerated with 45 s injection of MgCl2 8M.
To evaluate binding ability, manual runs were performed at 30 μl/min with a 60 s injection of the desired compound followed by 60 s waiting time and a 45 s of regeneration at 10 μl/min using MgCl2 8M. All data was analysed using the software, BIAEvaluation.

[2] = Aggregation by HPLC size-exclusion chromatography; format: physicochemical; conditions: purified or analysed conjugate vs unconjugated antibody
Method: Aggregation can be tested by analytical size-exclusion HPLC measuring the percentage of high molecular weight material compared to the conjugate eluting at a retention time characteristic of a monomeric conjugate.
Typically, 20 μg of protein was injected for analytical runs and 300 μg for semi-preparative runs.

[3] = Concentration reached and storage stability of purified conjugates in buffer; format: physicochemical
[4] = NCI-N874 Cells (HER2++), Table 49
[5] = NCI-N87 Cells (HER2++), Table 51

Molecule | IC50 μg/ml (BT474 cells) [µg/mL] | IC50 (BT474 cells) [nM] | IC50 μg/ml (SKBr3 cells; Table 49) [µg/mL] | IC50 (SKBr3 cells; Table 49) [nM] | IC50 μg/ml (NCI-N87 cells; [4]) [µg/mL] | IC50 (NCI-N87 cells; [4]) [nM] | further results
CC[C@H](C)[C@@H]([C@@H](CC(=O)N1CCC[C@H]1[C@H](OC)[C@@H](C)C(=O)N[C@@H](Cc1ccccc1)C(=O)O)OC)N(C)C(=O)[C@@H](NC(=O)[C@@H](NC)C(C)C)C(C)C [Free MMAF, monomethyl auristatin F, reference compound] (H-[NMeV]V[Dil][Dolaproine]F-OH) |  |  |  |  |  |  | tumour growth (in words) [1]: grew rapidly
B1 | 0.00115 | 0.0392 | 0.00089 | 0.0317 | 0.00087 | 0.0311 | 
B2 | 0.01082 | 0.386 | 0.00844 | 0.299 | 0.0087 | 0.31 | 
B3 |  |  |  |  |  |  | IC50 μg/ml (U87 cells): 0.1 µg/mL; IC50 (U87 cells; read-out: IC50): 3.57 nM; IC50 μg/ml (SKBr3 cells; Table 51): 0.04476 µg/mL; IC50 (SKBr3 cells; Table 51): 1.59 nM; IC50 μg/ml (NCI-N87 cells; [5]): 0.195 µg/mL; IC50 (NCI-N87 cells; [5]): 6.95 nM
B4 | 0.00112 | 0.0399 | 0.00101 | 0.0361 | 0.00036 | 0.0129 | 
B5 |  |  |  |  |  |  | binding function against immobilised HER2 (in words) (HER2): verified; aggregation by HPLC-SEC (in words) [2]: no aggregation; time stable in the buffer ([3]; after purification and concentration): several weeks; concentration to which purified conjugates were concentrated ([3]; in buffer after SEC purification): ~600 µg/mL
